Test results published in patent US20240352438A1, “MEANS AND METHODS FOR DETOXIFYING OCHRATOXIN A” (DSM Austria GmbH, priority 2021, published 2024).
Where a chain is given by its changes, count along the chain named.

B1: 310 (protein)
chain: MTTRTRILTAFLSLLAANACAADAAPAAPHTVVLRAARMFDGASGKLVDHPQLTIVGNKIVRIAQGDKAEVPAGAEVVDLGDATLLPGFIDAHVHLSGQSSDNWYGDFFDNMMRFPAEQALYGAYYARITLEAGFTSVRDVGSTDWVALGLRNAIDAGKVPGPRMLVSNYAVGSTGGHADQDPIPPHKLPLAGPLQGVCNGPEECRAAVRYQIKYGANVIKFMPSGGVLSLSDPVDAPELSQDEMNAVIGESHAWGRKVAAHAHGDKAAKMAVAAGVDSIEHGSFIEDDTLRAMKAKNVYLVPTISAAAHVEEKIGTFPPVIAEKGRAAAAHMRQTFRHAVQIGVPIALGTDAGVGAHGSNAREFRYMVENGLTPAQALLAGTANAARLLGTFDRVGTLEAGKLADVVAVPGNPIADITVTERPLFVMKDGVVVRRDAVR
modifications: exemplary polypeptide
B2: 105 (protein)
chain: B1 chain with H187Q, A308I, M333L
modifications: exemplary polypeptide
B3: 87 (protein)
chain: B1 chain with M333L
modifications: exemplary polypeptide
B4: 312 (protein)
chain: B1 chain with A308V, A330M, M333L
modifications: exemplary polypeptide
B5: 89 (protein)
chain: B1 chain with A308I, V311I, M333L
modifications: exemplary polypeptide
B6: 83 (protein)
chain: B1 chain with L229I, A308I, M333L
modifications: exemplary polypeptide
B7: 311 (protein)
chain: B1 chain with A308V, A330L, M333L
modifications: exemplary polypeptide
B8: 96 (protein)
chain: B1 chain with A308I, M333L, V355I
modifications: exemplary polypeptide
B9: 107 (protein)
chain: B1 chain with A308I, H310Q, M333L
modifications: exemplary polypeptide
B10: 108 (protein)
chain: B1 chain with A308I, H310N, M333L
modifications: exemplary polypeptide
B11: 106 (protein)
chain: B1 chain with H187N, A308I, M333L
modifications: exemplary polypeptide
B12: 95 (protein)
chain: B1 chain with A308I, M333L, V355L
modifications: exemplary polypeptide
B13: 103 (protein)
chain: B1 chain with I184V, A308I, M333L
modifications: exemplary polypeptide
B14: 315 (protein)
chain: B1 chain with A308V
modifications: exemplary polypeptide
B15: 111 (protein)
chain: B1 chain with A308I, H332Q, M333L
modifications: exemplary polypeptide
B16: 91 (protein)
chain: B1 chain with A308I, F318L, M333L
modifications: exemplary polypeptide
B17: 113 (protein)
chain: B1 chain with E287Q, A308I, M333L
modifications: exemplary polypeptide
B18: 85 (protein)
chain: B1 chain with H264L, A308I, M333L
modifications: exemplary polypeptide
B19: 88 (protein)
chain: B1 chain with A308I, V311L, M333L
modifications: exemplary polypeptide
B20: 84 (protein)
chain: B1 chain with H264N, A308I, M333L
modifications: exemplary polypeptide
B21: 313 (protein)
chain: B1 chain with A308V, A330V, M333L
modifications: exemplary polypeptide
B22: 316 (protein)
chain: MTTRTRILTAFLSLLAANACAADAAPAAPETVVLRCARMFDGASGKLVDNPQLTIVGNKIVRIAQGDKAEVPAGAEVVDLGDATCLPGFIDAHVHLVVQDSDQYRPRAYKDWQRFPAEHALRGAYWARIELEAGFTSVRDVAERDWVALGLRNAIDAGKVPGPRMLVSNFPVGSTSGHCDMDSVPPNRLPLVGPLQGTCNGPEECRAAVRYQIKYGANVIKFCPSSGAITFSNPADAPQLSPDEMNAVIGESEAWGRYVAAHAQGDKAAKMAVAAGVRSIEHGTFIQDDTLRAMKAKNVCLVPTISGVCEAEAQIGCYPPVMAEKGRAGMASMRQTFREAVQIGVPIALGTDSALPANGSQAREFRYMVENGLTPAQALLAGTANAARCLGTFDRVGTLEAGKLADVVAVPGNPIADITVTERPLFVMKDGVVVRRDAVR
modifications: exemplary polypeptide

assay: Enzymatic activity comparison: activity remaining after 65° C. for 10 min at pH 6.0, relative to SEQ ID NO: 1; format: physicochemical; details: not given
Experimental: To compare the temperature behavior and thermostability of selected enzymes to one another, enzyme was incubated at 65° C. for 10 min at pH 6.0. The enzymatic activity remaining after incubation was compared to the remaining activity of the enzyme of SEQ ID NO: 1 after incubation, the latter being set to 100%, see Table 16.

| Molecule | Enzymatic activity remaining after incubation, compared to SEQ ID NO: 1 (set to 100%) [%] |
| --- | --- |
| B1 | 39 |
| B2 | 15 |
| B3 | 53 |
| B4 | 17 |
| B5 | 71 |
| B6 | 19 |
| B7 | 30 |
| B8 | 39 |
| B9 | 21 |
| B10 | 27 |
| B11 | 27 |
| B12 | 38 |
| B13 | 36 |
| B14 | 29 |
| B15 | 35 |
| B16 | 16 |
| B17 | 62 |
| B18 | 95 |
| B19 | 33 |
| B20 | 58 |
| B21 | 20 |
| B22 | 25 |

assay: OTA detoxification activity assay (specific activity, fluorescence reduction ex/em 390/450 nm); format: biochemical; details: pH 6.0; SEQ ID NO: 1 = 100%
In short: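 Recombinant enzyme preparation with 200 ng/mL OTA in 100 mM sodium phosphate, at pH 6.0 and pH 7.5, 37° C. Degradation followed as the fall in fluorescence at ex/em 390/450 nm. Specific activity taken from the initial linear slope; one unit degrades 1 μmol OTA per min at a starting OTA of […].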

| Molecule | Specific OTA detoxification activities in % compared to the enzyme of SEQ ID NO: 1, pH 6.0 [%] |
| --- | --- |
| B1 | 78 |
| B2 | 81 |
| B3 | 65 |
| B4 | 81 |
| B5 | 43 |
| B6 | 63 |
| B7 | 89 |
| B8 | 42 |
| B9 | 54 |
| B10 | 61 |
| B11 | 88 |
| B12 | 108 |
| B13 | 101 |
| B14 | 38 |
| B15 | 8 |
| B16 | 49 |
| B17 | 31 |
| B18 | 5 |
| B19 | 66 |
| B20 | 3 |
| B21 | 84 |
| B22 | 62 |

same assay, conditions: pH 7.5; SEQ ID NO: 1 = 100%

| Molecule | Specific OTA detoxification activities in % compared to the enzyme of SEQ ID NO: 1, pH 7.5 [%] |
| --- | --- |
| B1 | 91 |
| B2 | 120 |
| B3 | 166 |
| B4 | 64 |
| B5 | 107 |
| B6 | 90 |
| B7 | 48 |
| B8 | 33 |
| B9 | 92 |
| B10 | 96 |
| B11 | 126 |
| B12 | 178 |
| B13 | 124 |
| B14 | 56 |
| B15 | 52 |
| B16 | 73 |
| B17 | 95 |
| B18 | 3 |
| B19 | 91 |
| B20 | 5 |
| B21 | 54 |
| B22 | 61 |
